The source of these data is the supplement of paper PMC10567573.

± gives the standard deviation.

The data set can be described thus: protein stability index of a GFP-peptide fusion (GPS, HEK-293T) (PSI 1-6); higher = more stable. The following applies: c terminus: a fixed tail appended.
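Also: 24-mer peptide tiles fused after GFP, lentivirally expressed, FACS-sorted into six equal bins by GFP/DsRed ratio, decoded by Illumina sequencing, PSI is the read-weighted mean bin number.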

As to EEGTSDSNTGSESNSATVEEPPTD [SMARCE1], the protein stability index stood at 5.36 ± 0.44 (treatment: DMSO) and 5.67 ± 0.2 (treatment: MLN4924 1 uM, 8 h).
For EEPVFEAVINWVKHAKKEREESLP [KLHL12], in that order: 4.16 ± 0.48 and 4.17 ± 0.28.
For EERATRLAELQEQLKAVHEQLAAL [BRD3], in that order: 4.59 ± 0.22 and 4.31 ± 0.062.
For EERNRFTETREEDVTDEHGEREPF [FAM9B], in that order: 5.62 ± 0.17 and 5.58 ± 0.12.
In the case of EESRDPTLYANNVQRVMAQALGIP [LPCAT4], the protein stability index runs as follows: (treatment: DMSO) 3.71 ± 0.39; (treatment: MLN4924 1 uM, 8 h) 3.89 ± 0.33.
For EESRISVPVHSFASLNIKTTVPEV [PRPH], in that order: 4.05 ± 0.35 and 3.98 ± 0.39.
For EETHLEETTESQQNGEEGTSTPED [SMARCE1], in that order: 5.48 ± 0.29 and 5.63 ± 0.23.
As to EFCEPAFVVGNCLQIASDSHQYDR [PCMTD1], the protein stability index reads like this: (treatment: DMSO) 3.5 ± 0.49; (treatment: MLN4924 1 uM, 8 h) 3.51 ± 0.31.
For EGREAPALVAAGGAPEDDEEDDGR [DENND6A], in that order: 5.68 ± 0.29 and 5.72 ± 0.3.
For EGRPGAATFHVGGGPAQNAPHQQP [TFE3], in that order: 4.79 ± 0.17 and 4.8 ± 0.24.
For EHGEKIYFFCENDAEFLCVFCREG [TRIM15], in that order: 2.36 ± 0.082 and 2.53 ± 0.42.
As for EHIADALRAIDFGTDEEEEEFIEE [TRIM63], the protein stability index was 5.34 ± 0.2 (treatment: DMSO) and 5.36 ± 0.32 (treatment: MLN4924 1 uM, 8 h).
For EICLWGRHIFMGYLESETETTEAI [ACSBG2], in that order: 2.55 ± 0.072 and 3.05 ± 0.29.
For EIFQKPFQTLMFLVRDWSFPYEYS [ATL3], in that order: 2.73 ± 0.56 and 3.52 ± 0.089.
For EILDYIFSGQIRLNEDTIQDVVQA [GAN], in that order: 2.67 ± 0.55 and 2.23 ± 0.34.
Turning to EIPTGKKDHECSECGKTFIYNSHL [ZNF232], the protein stability index came to 3.7 ± 0.21 (treatment: DMSO) and 3.49 ± 0.28 (treatment: MLN4924 1 uM, 8 h).
For EISGPLTSANKITLVSSGSGTMGA [FLOT1], in that order: 3.46 ± 0.046 and 3.5 ± 0.26.
Regarding EKIQQDADSVITVGRGEVVTVRVP [ACBD3], the protein stability index (treatment: DMSO) was found to be 4.55 ± 0.16 and the protein stability index (treatment: MLN4924 1 uM, 8 h) turned out to be 4.63 ± 0.14.
For EKRAKRLSSAPSSRAEPIRTTVFQ [ZMAT5], in that order: 3.74 ± 0.54 and 3.86 ± 0.061.
With EKSGFSQHQNKSPPKVKAEDGMQC [DLC1], the protein stability index reads like this: (treatment: DMSO) 5.19 ± 0.33; (treatment: MLN4924 1 uM, 8 h) 5.22 ± 0.13.
Regarding EKTQDDLMKHQTNISELKRTFLET [EPB41L3], the protein stability index (treatment: DMSO) came out at 4.18 ± 0.68 and the protein stability index (treatment: MLN4924 1 uM, 8 h) turned out to be 4.2 ± 0.31.
For ELAEIFRASGEHVTDEEIESLMKD [TNNC2], in that order: 5 ± 0.41 and 5.34 ± 0.33.
For ELDSSSSLCVLVSTVGKLCRLINE [CEP70], in that order: 3.73 ± 0.53 and 3.6 ± 0.35.
Take ELTNGVINAAFMLLFKDLIKLFAC [SNAP91]: the protein stability index runs as follows: (treatment: DMSO) 3.57 ± 0.5; (treatment: MLN4924 1 uM, 8 h) 3.14 ± 0.57.
For EMLAAACQMFLGKTEAEIAHIALE [FLOT1], in that order: 3.15 ± 0.81 and 2.78 ± 0.34.
For EMSKDALPEKACQLDSRYWRITNA [FBXO3], in that order: 3.55 ± 0.24 and 3.5 ± 0.16.
For ENHPDVFSDSSMDHFQKFLPTVGG [MYOZ1], in that order: 2.99 ± 0.5 and 3.34 ± 0.53.
For the sequence ENIEVKEGGLYFERRPVAQSTDGA [SPSB2], the protein stability index worked out at 4.55 ± 0.27 (treatment: DMSO) and 4.66 ± 0.18 (treatment: MLN4924 1 uM, 8 h).
For ENIKGYYIIIVPLKKSRGKFIKPW [PTPRD], in that order: 2.67 ± 0.86 and 1.86 ± 0.45.
For ENVVHGHILAAEQLSRDSTLGGKA [NSDHL], in that order: 4.52 ± 0.11 and 4.6 ± 0.3.
For ENYHKLRRSSSKCIHDHHCGSQLS [NETO1], in that order: 3.1 ± 0.27 and 3.26 ± 0.4.
Consider EPLRSEILSGKFTILNVRDPTGAS [PTPN9], for which the protein stability index is 3.65 ± 0.098 (treatment: DMSO) and 3.58 ± 0.16 (treatment: MLN4924 1 uM, 8 h).
For EPSHSVKVHTVPKPGKGADLSKPP [ATE1], in that order: 4.96 ± 0.22 and 4.96 ± 0.27.
With EQRADPNAKAHCGATALHFAAEAG [FEM1B], the protein stability index was 4.03 ± 0.18 (treatment: DMSO) and 3.98 ± 0.34 (treatment: MLN4924 1 uM, 8 h).
For EQREWVLKSSILIAMAVYTYLRLI [INTS3], in that order: 2.6 ± 0.59 and 2.59 ± 0.45.
For ERCLHMFLQEEAIDRNYVPGKSLA [SNX12], in that order: 2.97 ± 0.31 and 3.05 ± 0.26.
For the sequence EREMAEIRDQMQQQLNDYEQLLDV [LMNB1], the protein stability index came to 5.15 ± 0.17 (treatment: DMSO) and 5.09 ± 0.19 (treatment: MLN4924 1 uM, 8 h).
For ERFLELAPDFVGDILWEHLEQMIK [ETS2], in that order: 2.36 ± 0.58 and 2.89 ± 0.51.
Consider ERVEALGQFVMKTRRTLKGHGNKV [GNB5], for which the protein stability index amounted to 3.09 ± 0.7 (treatment: DMSO) and 3.52 ± 0.14 (treatment: MLN4924 1 uM, 8 h).
For ERWLQKQGKYSGVGLLDHMVSIYL [RNF180], in that order: 2.3 ± 0.39 and 2.59 ± 0.28.
For ESKDYLSLYLLLVSCPKSEVRAKF [SPOPL], in that order: 2.92 ± 0.38 and 2.82 ± 0.63.
On to ESKLLGSNSSRMYFTQTLLPGLAG [MLH1], for which the protein stability index by setting is: (treatment: DMSO) 3.12 ± 0.24; (treatment: MLN4924 1 uM, 8 h) 3.12 ± 0.5.
Consider ESKTDGDDTETVPSEQSHASGKLR [TCF25], for which the protein stability index is 5.54 ± 0.26 (treatment: DMSO) and 5.56 ± 0.4 (treatment: MLN4924 1 uM, 8 h).
On to ESNAAQYSPEALASIQNHVRKREA [EFHC1], for which the protein stability index (treatment: DMSO) is 4.87 ± 0.24 and the protein stability index (treatment: MLN4924 1 uM, 8 h) amounted to 4.7 ± 0.27.
Turning to ESQKANQCAVLIYTSGTTGIPKGV [ACSBG2], the protein stability index was determined as 2.13 ± 0.26 (treatment: DMSO) and 2.52 ± 0.41 (treatment: MLN4924 1 uM, 8 h).
For ETDSEMNSQESRSDLEDMEEEEGT [SMG5], in that order: 5.74 ± 0.16 and 5.69 ± 0.074.
For ETFRQQFRQFGYQDSPGPHEALSR [ZNF396], in that order: 3.34 ± 0.22 and 3.68 ± 0.043.
Turning to ETQNAFLNERKQASAIKKEELVAR [CHGB], the protein stability index (treatment: DMSO) is 3.57 ± 0.12 and the protein stability index (treatment: MLN4924 1 uM, 8 h) amounted to 3.77 ± 0.24.
For ETSPLPGMLAPAAGPAFDSDPEIS [PPFIA4], in that order: 5.48 ± 0.29 and 5.38 ± 0.31.
For ETYHQQGQCQVLVQRSPWLMMRMG [TCAP], in that order: 2.18 ± 0.22 and 2.23 ± 0.35.
For EVDPVRRAVRDRNLLRDDRVLQNL [CCND2], in that order: 4.1 ± 0.2 and 4.01 ± 0.27.
As for EVLVGKTIEQSLLEVMEEEELANL [RSPH3], the protein stability index by setting is: (treatment: DMSO) 4.89 ± 0.3; (treatment: MLN4924 1 uM, 8 h) 4.91 ± 0.23.
For EVPLISFTGSQPTAERITQLSAPH [ALDH8A1], in that order: 3.86 ± 0.35 and 3.96 ± 0.43.
For EVTLSEAGSTAGAAETRGAVEGAA [PALM], in that order: 5.43 ± 0.39 and 5.43 ± 0.17.
For EVVVAESELQKELKKVKTAHSNDG [DPCD], in that order: 5.18 ± 0.25 and 5.25 ± 0.32.
Take EYQPLQIETYGPHVPELEMLGRLG [MNAT1]: the protein stability index by setting is: (treatment: DMSO) 3.18 ± 0.28; (treatment: MLN4924 1 uM, 8 h) 3.76 ± 0.31.
For FDHPIPRVFQNRFSTQYRCFSVSM [UFD1], in that order: 2.89 ± 1 and 2.45 ± 0.6.
Regarding FDKKDRRALHWAAYMGHLDVVALL [ANKRD44], the protein stability index is, setting by setting: (treatment: DMSO) 2.61 ± 0.82; (treatment: MLN4924 1 uM, 8 h) 2.24 ± 0.22.
For FDVVVILTCSLSFLLCARSLLRGF [MCOLN1], in that order: 3.38 ± 0.31 and 2.98 ± 0.54.
For FFASGFKRAFKIKDFANTIPGHGG [CDS2], in that order: 1.95 ± 0.11 and 2.33 ± 0.2.
For FFYGETVTDYFFTLVQREEPLRIL [CDS2], in that order: 2.73 ± 0.66 and 2.17 ± 0.46.
With FGELMRKLWNPRNFKAHVSPHEML [USP39], the protein stability index by setting is: (treatment: DMSO) 2.51 ± 0.43; (treatment: MLN4924 1 uM, 8 h) 2.25 ± 0.084.
For FGELRLGKNLYTNEYVAIKLEPIK [CSNK1G1], in that order: 3.02 ± 0.94 and 2.04 ± 0.47.
As for FGGTGIPFGESNGNGVHVCNVKYK [KLHDC10], the protein stability index worked out at 2.52 ± 0.35 (treatment: DMSO) and 3.06 ± 0.51 (treatment: MLN4924 1 uM, 8 h).
As for FIIFGTMEEMQNKAVVFFVFYLWS [HACD3], the protein stability index is, setting by setting: (treatment: DMSO) 2.8 ± 0.69; (treatment: MLN4924 1 uM, 8 h) 2.75 ± 0.13.
For the sequence FIPECNDDGTYSQVQCHSYTGYCW [SMOC2], the protein stability index stood at 2.79 ± 1 (treatment: DMSO) and 2.27 ± 0.45 (treatment: MLN4924 1 uM, 8 h).
For FLGLGAPNCLSMGSRCLKTFEVPE [ZBED1], in that order: 2.3 ± 0.2 and 2.06 ± 0.28.
For FLLKFLLVGDRDVGKSEILESLQD [RAB40A], in that order: 2.65 ± 0.43 and 2.9 ± 0.56.
For FLVDMFNDEIEEVRLQSIHTMRKI [INTS4], in that order: 2.33 ± 0.13 and 2.54 ± 0.34.
FMLEIVTPTSLSSLSNAVANTMEH [FBXO33] gave a protein stability index (treatment: DMSO) of 2.77 ± 0.75 and a protein stability index (treatment: MLN4924 1 uM, 8 h) of 2.7 ± 0.55.
For FNPPPSRPLQVNTADHRIYSYVVS [FAF2], in that order: 2.62 ± 0.29 and 2.92 ± 0.38.
For FPDLLLTKRDSFLKRLYRAPIDWI [ALG2], in that order: 2.27 ± 0.29 and 2.64 ± 0.52.
As to FPLLPDHATALVEAFRLKQQLHAR [PPEF2], the protein stability index was 2.74 ± 0.11 (treatment: DMSO) and 2.79 ± 0.09 (treatment: MLN4924 1 uM, 8 h).
